Results published in patent US7297837 (Johns Hopkins, dated 2007).

Target: T1, full-length hMLH1 protein (human, UniProt P40692 1-756, 35S-labelled methionine where labelled)
T1 construct: Called full-length
T1 sequence (looked up): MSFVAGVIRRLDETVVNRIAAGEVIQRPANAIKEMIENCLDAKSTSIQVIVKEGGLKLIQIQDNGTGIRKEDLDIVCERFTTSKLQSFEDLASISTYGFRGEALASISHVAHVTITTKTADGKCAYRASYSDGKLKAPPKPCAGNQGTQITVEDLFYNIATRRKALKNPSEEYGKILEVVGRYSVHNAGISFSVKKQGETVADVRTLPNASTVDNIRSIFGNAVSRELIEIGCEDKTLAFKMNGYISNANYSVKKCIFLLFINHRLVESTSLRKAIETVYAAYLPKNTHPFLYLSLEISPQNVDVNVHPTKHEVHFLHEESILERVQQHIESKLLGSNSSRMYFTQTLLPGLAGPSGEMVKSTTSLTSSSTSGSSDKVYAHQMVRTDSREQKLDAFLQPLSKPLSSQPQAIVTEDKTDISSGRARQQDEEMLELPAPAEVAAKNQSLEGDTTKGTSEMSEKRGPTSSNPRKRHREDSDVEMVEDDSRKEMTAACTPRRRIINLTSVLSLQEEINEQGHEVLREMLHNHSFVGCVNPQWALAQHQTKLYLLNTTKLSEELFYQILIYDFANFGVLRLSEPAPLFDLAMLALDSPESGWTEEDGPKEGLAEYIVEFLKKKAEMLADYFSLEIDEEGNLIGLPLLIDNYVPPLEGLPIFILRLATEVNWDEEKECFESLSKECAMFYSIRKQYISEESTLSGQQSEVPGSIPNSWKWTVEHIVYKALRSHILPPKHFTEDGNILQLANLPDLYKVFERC
Assay: co-immunoprecipitation of in vitro translated proteins with anti-hMLH1 mAb (FIG. 5B, lane 1); converse with N-terminal hPMS2 antibody (FIG. 5C, lane 2)
Method: Immunoprecipitation, Immunoprecipitations were performed on in vitro translated proteins by mixing the translation reactions with 1 μg of the MLH1 specific monoclonal antibody (mAB) MLH14 (Oncogene Science, Inc.), a polyclonal antibody generated to codons 2-20 of hPMS2 described above, or a polyclonal antibody generated to codons 843-862 of hPMS2 (Santa Cruz Biotechnology, Inc.) in 400 µl of EBC buffer (50 mM Tris, pH 7.5, 0.1 M NaCl, 0.5% NP40). After incubation for 1 hr at 4° C., protein A sepharose (Sigma) was added to a final concentration of 10% and reactions were incubated at 4° C. for 1 hour. Proteins bound to protein A were washed five times in EBC and separated by electrophoresis on 4-20% Tris-glycine gels, which were then dried and autoradiographed.
Previous studies have shown that these two proteins dimerize to form a functionally active complex (12, 28). Proteins were synthesized in vitro using reticulocyte lysates, employing RNA generated from cloned templates. The full-length hMLH1 and hPMS2 proteins bound to each other and were co-precipitated with antibodies to either protein, as expected (data not shown). […] When a ^35S-labelled, full length hMLH1 protein (FIG. 5A, lane 5) was mixed with the unlabelled carboxyl terminal hPMS2 polypeptide, a monoclonal antibody (mAb) to the carboxyl terminus of hPMS2 efficiently immunoprecipitated the labeled hMLH1 protein (lane 1). […]

binding result: no binding
B1: hPMS-134 (containing codons 1-134 of hPMS2), in vitro translated (other, human, UniProt P54278 1-134, looked up)
chain: MERAESSSTEPAKAIKPIDRKSVHQICSGQVVLSLSTAVKELVENSLDAGATNIDLKLKDYGVDLIEVSDNGCGVEEENFEGLTLKHHTSKIQEFADLTQVETFGFRGEALSSLCALSDVTISTCHASAKVGTR
modifications: 35S-labelled methionine
notes: The patient allele expressed in cells is said to give the N-terminal 133 amino acids
